This note sets out measurements from US6413935.

The experiment concerns the target HLA-DQ3.1 (DQA1*0301/DQB1*0310), purified from PF cells (human) (UniProt P01909). Briefly: 125I-peptide inhibition, purified class II.

What is called IC50 is the concentration needed to halve the response being measured.

Consider lambda rep 12-26 (peptide), for which the IC50 was over 10 µM.
